# Assay results reported in article PMC12800249 (Scientific Reports, 2025).
# How the values were obtained:
# [1] = molecular target: delta opioid receptor (DOR) (Rattus norvegicus, UniProt P33533); assay: Intracellular cAMP assay; assay type: cell-based; details: FRSK cells; 10 μM forskolin, 1–1000 nM peptide, 30 min; cAMP-Glo
# MOR = details: literature statement; cited from earlier work
# Chain of delta opioid receptor (DOR) (P33533 whole entry): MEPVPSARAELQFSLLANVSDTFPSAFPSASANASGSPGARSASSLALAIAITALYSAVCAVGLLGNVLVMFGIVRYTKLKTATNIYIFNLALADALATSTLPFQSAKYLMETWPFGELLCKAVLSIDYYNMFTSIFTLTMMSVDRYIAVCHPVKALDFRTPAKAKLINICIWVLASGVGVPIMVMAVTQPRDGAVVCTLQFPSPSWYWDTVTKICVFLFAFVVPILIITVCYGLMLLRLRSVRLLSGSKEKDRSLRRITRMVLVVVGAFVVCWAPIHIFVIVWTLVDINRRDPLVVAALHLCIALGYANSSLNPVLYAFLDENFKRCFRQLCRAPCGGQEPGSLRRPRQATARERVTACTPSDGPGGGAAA
substance,measurement,setting,value
β-endorphin,effect on forskolin-induced intracellular cAMP,[1],attenuated this forskolin-induced increase in cAMP concentration in a dose-dependent manner
same,receptor preference (MOR),MOR,primary ligand for MOR
